From patent US20090018093 come the findings set out here.

For data set [1], the system named is Immunoglobulin E (IgE) (Homo sapiens), P01854-1. The data set is described as follows: inhibition. Conditions: FACS.
Data set [2] has the same test system. The data set is described as follows: filter.

Like-named read-outs stand apart in the source and are kept apart here.

Immunoglobulin E (IgE) (Homo sapiens), P01854-1, sequence (P01854 other isoform, or with tags, fused parts or gaps): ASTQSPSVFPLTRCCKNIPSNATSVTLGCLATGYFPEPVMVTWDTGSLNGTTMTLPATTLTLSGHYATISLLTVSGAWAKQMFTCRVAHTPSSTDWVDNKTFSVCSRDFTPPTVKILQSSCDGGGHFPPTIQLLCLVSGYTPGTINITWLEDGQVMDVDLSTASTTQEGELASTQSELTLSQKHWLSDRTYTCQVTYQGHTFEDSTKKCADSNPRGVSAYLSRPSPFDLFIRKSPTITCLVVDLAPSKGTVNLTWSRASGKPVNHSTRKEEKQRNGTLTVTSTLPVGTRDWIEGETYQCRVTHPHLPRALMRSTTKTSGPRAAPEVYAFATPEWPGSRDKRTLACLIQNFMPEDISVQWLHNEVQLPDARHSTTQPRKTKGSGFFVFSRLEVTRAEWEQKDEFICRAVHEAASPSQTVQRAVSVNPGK

With AGCCUGGGGACCCAUGGGGGGCU [ARC1785], the 50% inhibitory concentration (IC50) in data set [1] (ARC1666 chemistry, 5' and 3' 20 kDa PEG [dI at 16,18,20 (written as parent G), PS after 8,15,16,18,20, 2'-OMe/2'-deoxy mix (ARC1666 chemistry), 5' and 3' amine linker-20 kDa PEG left out], IgE-FceR1 on SX38 cells) worked out at 2 nM. In the case of AGCCUGGGGACCCAUGGGGGGCU [ARC1790], the IC50 in data set [1] (ARC1666 chemistry, 5' and 3' 30 kDa PEG [dI at 16,18,20 (written as parent G), PS after 8,15,16,18,20, 2'-OMe/2'-deoxy mix (ARC1666 chemistry), 5' and 3' amine linker-30 kDa PEG left out], IgE-FceR1 on SX38 cells) was determined as 0.89 nM. “GGGGCTACTTTATCCGTTCCTCCTAGTGGGTAGCCCC [ARC656]” registered an IC50 in data set [1] (3' idT [3' idT left out], 2.5 nM IgE, histamine release IC50 16.9 nM) of 21.2 nM. In data set [2] (2'-OMe at 8, 3' idT [8 (2'-OMe C), 38 (3' inverted dT)], DPBS Mg/Ca, BSA), “GGGGCTACTTTATCCGTTCCTCCTAGTGGGTAGCCCCT [ARC1272]” gave a Kd of 0.2 nM. In data set [2] (2'-OMe at 12, 3' idT [12 (2'-OMe A), 38 (3' inverted dT)], DPBS Mg/Ca, BSA), “GGGGCTACTTTATCCGTTCCTCCTAGTGGGTAGCCCCT [ARC1276]” yielded a Kd of 3 nM.

Sequence “GGGGCTACTTTATCCGTTCCTCCTAGTGGGTAGCCCCT [ARC1278]” displayed a Kd in data set [2] (2'-OMe at 14, 3' idT [14 (2'-OMe C), 38 (3' inverted dT)], DPBS Mg/Ca, BSA) of 2 nM. Consider “GGGGCTACTTTATCCGTTCCTCCTAGTGGGTAGCCCCT [ARC1279]”, for which the Kd in data set [2] (2'-OMe at 15, 3' idT [15 (2'-OMe C), 38 (3' inverted dT)], DPBS Mg/Ca, BSA) came to 0.8 nM. For “GGGGCTACTTTATCCGTTCCTCCTAGTGGGTAGCCCCT [ARC1286]”, the Kd in data set [2] (DNA with 2'-OMe C22, 3' idT [2'-OMe C22, 3' inverted dT38], dPBS Ca/Mg + BSA) is 7 nM. Turning to “GGGGCTACTTTATCCGTTCCTCCTAGTGGGTAGCCCCT [ARC1292]”, the dissociation constant Kd in data set [2] (DNA with 2'-OMe G28, 3' idT [2'-OMe G28, 3' inverted dT at 38], dPBS Ca/Mg + BSA) is 22 nM. Consider “GGGGCTACTTTATCCGTTCCTCCTAGTGGGTAGCCCCT [ARC1298]”, for which, in data set [2] (2'-OMe at 34, 3' idT [2'-OMe: 34, 38 = 3' inverted dT], DPBS Mg/Ca, BSA), the Kd turned out to be 0.4 nM. As to “GGGGCTACTTTATCCGTTCCTCCTAGTGGGTAGCCCCT [ARC1299]”, in data set [2] (2'-OMe at 35, 3' idT [2'-OMe: 35, 38 = 3' inverted dT], DPBS Mg/Ca, BSA), the Kd stood at 0.5 nM. Take “GGGGCTACTTTATCCGTTCCTCCTAGTGGGTAGCCCCT [ARC1300]”: the dissociation constant Kd in data set [2] (2'-OMe at 36, 3' idT [2'-OMe: 36, 38 = 3' inverted dT], DPBS Mg/Ca, BSA) came out at 0.7 nM. “GGGGCTACTTTATCCGTTCCTCCTAGTGGGTAGCCCCT [ARC1301]”: the Kd in data set [2] (2'-OMe at 37, 3' idT [2'-OMe: 37, 38 = 3' inverted dT], DPBS Mg/Ca, BSA) was found to be 0.5 nM. On to “GGGGCTACTTTATCCGTTCCTCCTAGTGGGTAGCCCCT [ARC1302]”, for which, in data set [2] (DNA with 2'-OMe G1-G4,A7,G30,A32,G33, 3' idT [2'-OMe G1-G4, A7, G30, A32, G33, 3' inverted dT at 38], dPBS Ca/Mg + BSA), the Kd turned out to be 19 nM. In turn, “GGGGCTACTTTATCCGTTCCTCCTAGTGGGTAGCCCCT [ARC1304]” yielded a Kd in data set [2] (2'-OMe at 1-4,34-37, 3' idT [2'-OMe: 1-4,34-37, 38 = 3' inverted dT], DPBS Mg/Ca, BSA) of 0.6 nM.

Consider “GGGGCTACTTTATCCGTTCCTCCTAGTGGGTAGCCCCT [ARC1387]”, for which the Kd in data set [2] (2'-OMe at 1-4,7,33-37, 3' idT [2'-OMe: 1-4,7,33-37, 38 = 3' inverted dT], DPBS Mg/Ca, BSA) turned out to be 2.4 nM. As for “GGGGCTACTTTATCCGTTCCTCCTAGTGGGTAGCCCCT [ARC1410]”, the Kd in data set [2] (DNA with 2'-OMe G1-G4,A7,G33-C37, PS between T27 and G28, 3' idT [2'-OMe G1-G4, A7, G33-C37, PS 27/28 (printed N = PS linkage, left out), 3' inverted dT at 38], dPBS Ca/Mg + BSA) was 0.7 nM. On to “GGGGCTACTTTATCCGTTCCTCCTAGTGGGUAGCCCCN [ARC1295]”, for which the Kd in data set [2] (2'-OMe U at 31, 3' idT, DPBS Mg/Ca, BSA) came to 3 nM.

“GGGGCTACTTTATCCGTTCCTCCUAGTGGGTAGCCCCN [ARC1288]” showed a Kd in data set [2] (2'-OMe U at 24, 3' idT, DPBS Mg/Ca, BSA) of 2 nM. Take “GGGGCTACTTTATCCGTTCCUCCTAGTGGGTAGCCCCN [ARC1285]”: in data set [2] (2'-OMe U at 21, 3' idT, DPBS Mg/Ca, BSA), the Kd came to 0.8 nM. “GGGGCTACTTTATCCGTUCCTCCTAGTGGGTAGCCCCN [ARC1282]”: the equilibrium dissociation constant (Kd) in data set [2] (2'-OMe U at 18, 3' idT, DPBS Mg/Ca, BSA) is 0.2 nM.

The sequence “GGGGCTACTTTATCCGUTCCTCCTAGTGGGTAGCCCCN [ARC1281]” returned a Kd in data set [2] (2'-OMe U at 17, 3' idT, DPBS Mg/Ca, BSA) of 0.1 nM. For “GGGGCTACTTTAUCCGTTCCTCCTAGTGGGTAGCCCC [ARC1277]”, the Kd in data set [2] (DNA with 2'-OMe U13, 3' idT [2'-OMe U13, 3' inverted dT38], dPBS Ca/Mg + BSA) worked out at 6 nM. Turning to “GGGGCTACTTUATCCGTTCCTCCTAGTGGGTAGCCCC [ARC1275]”, the dissociation constant (Kd) in data set [2] (2'-OMe U at 11, 3' idT [11 (2'-OMe U), 38 (3' inverted dT)], DPBS Mg/Ca, BSA) is 0.3 nM.

For “GGGGCTACTTUATCCGUUCCTCCTAGTGGGTAGCCCC [ARC1389]”, in data set [2] (2'-OMe at 1-4,7,11,17,18,20,33-37, 3' idT [2'-OMe: 1-4,7,11,17,18,20,33-37, 38 = 3' inverted dT], DPBS Mg/Ca, BSA), the Kd was 5.4 nM. Sequence “GGGGCTACTUTATCCGTTCCTCCTAGTGGGTAGCCCC [ARC1274]” registered a Kd in data set [2] (2'-OMe U at 10, 3' idT [10 (2'-OMe U), 38 (3' inverted dT)], DPBS Mg/Ca, BSA) of 2 nM.

“GGGGCTACUTTATCCGTTCCTCCTAGTGGGTAGCCCC [ARC1273]”: in data set [2] (DNA with 2'-OMe U9, 3' idT [2'-OMe U9, 3' inverted dT38], dPBS Ca/Mg + BSA), the Kd was 3 nM. Take “GGGGCUACTTTATCCGTTCCTCCTAGTGGGTAGCCCC [ARC1270]”: the Kd in data set [2] (2'-OMe U at 6, 3' idT [6 (2'-OMe U), 38 (3' inverted dT)], DPBS Mg/Ca, BSA) was found to be 0.2 nM. With “GGGGCUACTTTATCCGTTCCTCCTAGTGGGTAGCCCC [ARC1388]”, in data set [2] (2'-OMe at 1-8,33-37, 3' idT [2'-OMe: 1-8,33-37, 38 = 3' inverted dT], DPBS Mg/Ca, BSA), the dissociation constant Kd was 4.4 nM. Regarding “GGGGCUACTTTATCCGTTCCTCCTAGTGGGUAGCCCC [ARC1303]”, in data set [2] (2'-OMe stem block as printed in Table 18, 3' idT [2'-OMe: stem block (exact positions not given in the material), 38 = 3' inverted dT], DPBS Mg/Ca, BSA), the Kd was 1.3 nM.

Regarding “GGGGCUACTTUATCCGUUCCTCCTAGTGGGTAGCCCC [ARC1390]”, the dissociation constant Kd in data set [2] (2'-OMe at 1-8,11,17,18,20,33-37, 3' idT [2'-OMe: 1-8,11,17,18,20,33-37, 38 = 3' inverted dT], DPBS Mg/Ca, BSA) amounted to 17 nM. As to “GGGGCUACTTUATCCGUUCCTCCTAGTGGGTAGCCCC [ARC1417]”, in data set [2] (DNA with 2'-OMe 1-8,U11,U17,U18,C20,33-37, multiple PS, 3' idT [2'-OMe 1-8, U11, U17, U18, C20, 33-37, PS 9/10, 12/13, 14/15, 21/22, 24/25, 27/28, 30/31 (printed N = PS linkage, left out), 3' inverted dT at 38], dPBS Ca/Mg + BSA), the Kd came to 27 nM. Turning to “GGGGTACCTTTATCCGTTTCTCCTAGTGGGGTGCCCC [DNA clone SEQ 132]”, the Kd in data set [2] was 0.4 nM. The same measure, in the same setting: then “GGGGTATGTTGATCCGTCCCTCCTAGTGGCATGCCCC [DNA clone SEQ 133]”, with 0.7 nM. Consider “NNAGCCUGGGNGACCCAUNNNGNNGNNGCUN [ARC1787]”, for which, in data set [1] (ARC1666 chemistry, 5' 40 kDa branched PEG, 3' idT, IgE-FceR1 on SX38 cells), the IC50 came out at 1.2 nM. Turning to “NNAGCCUGGGNGACCCAUNNNGNNGNNGCUN [ARC1788]”, the IC50 in data set [1] (ARC1666 chemistry, 5' 60 kDa branched PEG, 3' idT, IgE-FceR1 on SX38 cells) stood at 1.2 nM.
